Source: patent US20180134765A1 (AVIDBIOTICS, published 2018)
Changes are numbered by the printed parent chain.

B1: ULBP6-α3-iFv.2 (designed binder)
chain: EPHSLCYDITVIPKFRPGPRWCAVQGQVDEKTFLHYDCGNKTVTPVSPLGKKLNVTTAWKAQNPVLREVVDILTEQLLDIQLENYTPKEPLTLQARMSCEQKAEGHSSGSWQFSIDGQTFLLFDSEKRMWTTVHPGARKMKEKWENDKDVAMSFHYISMGDCIGWLEDFLMGMDSTLEPSAGAPPMVQVTRSEASGGSGDRVTITCRASQDVSTAVAWYQQKPGKAPKLLIYSASFLYSGVPSRFSGSGSGTDFTLTISSLQPEDFATYYCQQSYTTPPTFGQGTKVEIKGGSSRSSSSGGGGSGGGGEVQLVESGGGLVQPGGSLRLSCAASGFTFTSTGISWVRQAPGKGLEWVGRIYPTNGSTNYADSVKGRFTISADTSKNTAYLQMNSLRAEDTAVYYCARTYGIYDLYVDYTEYVMDYWGQGTLVTVSSGGSSRSSSSGGGGSGGGGDIQMTQSPSSLSASGGSGQITVTCRASGFYPWNITLSWRQDGVSLSHDTQQWGDVLPDGQGTYQTWVATRISQGEEQRFTCYMEHSGQHSTHPVPSGKGSHHHHHH
notes: His-tagged, monomeric, insect cells; also called NKG2DL-α3-iFv.2 (ULBP6)
B2: wt MICA-Fv (designed binder)
chain: EPHSLRYNLTVLSWDGSVQSGFLTEVHLDGQPFLRCDRQKCRAKPQGQWAEDVLGNKTWDRETRDLTGNGKDLRMTLAHIKDQKEGLHSLQEIRVCEIHEDNSTRSSQHFYYDGELFLSQNLETKEWTMPQSSRAQTLAMNVRNFLKEDAMKTKTHYHAMHADCLQELRRYLKSGVVLRRTVPPMVQVTRSEASGGSGDRVTITCRASQDVSTAVAWYQQKPGKAPKLLIYSASFLYSGVPSRFSGSGSGTDFTLTISSLQPEDFATYYCQQSYTTPPTFGQGTKVEIKGGSSRSSSSGGGGSGGGGEVQLVESGGGLVQPGGSLRLSCAASGFTFTSTGISWVRQAPGKGLEWVGRIYPTNGSTNYADSVKGRFTISADTSKNTAYLQMNSLRAEDTAVYYCARTYGIYDLYVDYTEYVMDYWGQGTLVTVSSGGSSRSSSSGGGGSGGGGDIQMTQSPSSLSASGGSGQITVTCRASGFYPWNITLSWRQDGVSLSHDTQQWGDVLPDGQGTYQTWVATRISQGEEQRFTCYMEHSGQHSTHPVPSGKGSHHHHHH
notes: His-tagged α1-α2-α3-Fv fusion, made in 293 cells; also called natural α1-α2 domain α3-Fv fusion
B3: MICv20-Fv (designed binder)
chain: B2 chain with G68A, N69W, K125L, K152Q, K154D, H158R, Q166F
notes: His-tagged α1-α2-α3-Fv fusion; also called DSM20 α1-α2-α3-Fv fusion
B4: MICv25-Fv (designed binder)
chain: B2 chain with N69W, K125L, K152E, K154D, H161R, Q166S
notes: His-tagged α1-α2-α3-Fv fusion; also called DSM25 α1-α2-α3-Fv fusion
B5: MICv27-Fv (designed binder)
chain: B2 chain with N69W, K125L, H161R, Q166S
notes: His-tagged α1-α2-α3-Fv fusion; also called DSM27 α1-α2-α3-Fv fusion
B6: MICv28-Fv (designed binder)
chain: B2 chain with K125L, H161R, Q166S
notes: His-tagged α1-α2-α3-Fv fusion; also called DSM28 α1-α2-α3-Fv fusion
B7: MICv42-Fv (designed binder)
chain: B2 chain with N69W, K125L, K152E, K154D, H161R
notes: His-tagged α1-α2-α3-Fv fusion; also called DSM42 α1-α2-α3-Fv fusion
B8: MICv48-Fv (designed binder)
chain: B2 chain with N69W, K125L, K152A, K154D, H158I, H161R, Q166A
notes: His-tagged α1-α2-α3-Fv fusion; also called DSM48 α1-α2-α3-Fv fusion
B9: MICv49-Fv (designed binder)
chain: B2 chain with S20T, G68Q, N69W, K152F, K154D, H158R, H161T, Q166T
notes: His-tagged α1-α2-α3-Fv fusion; also called DSM49 α1-α2-α3-Fv fusion

Assays:
human NKG2D-Fc = target: T1, human NKG2D-Fc (human, UniProt P26718 78-216, limits assumed); assay: ELISA: protein captured on FGFR3 detected with NKG2D-Fc
T1 construct: also called natural NKG2D-Fc; not shown: Fc part
T1 sequence (looked up): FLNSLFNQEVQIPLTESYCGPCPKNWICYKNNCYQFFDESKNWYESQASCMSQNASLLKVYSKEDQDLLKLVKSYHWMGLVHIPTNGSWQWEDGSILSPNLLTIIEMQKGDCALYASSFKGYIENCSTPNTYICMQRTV

His-avitag-natural NKG2D = target: T2, His-avitag-natural NKG2D (human, biotin on the avitag sequence (BirA)); assay: biolayer interferometry (Octet), biotinylated natural NKG2D ectodomain on the surface, 100 nM fusion protein
T2 construct: also called natural NKG2D ectodomain; wild type NKG2D
T2 chain: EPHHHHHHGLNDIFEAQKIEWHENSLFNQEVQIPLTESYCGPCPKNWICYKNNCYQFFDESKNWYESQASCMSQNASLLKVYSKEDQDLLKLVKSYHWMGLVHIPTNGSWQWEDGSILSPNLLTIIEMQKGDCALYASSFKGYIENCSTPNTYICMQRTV

| Binder | binding result (human NKG2D-Fc) | Kd (His-avitag-natural NKG2D) [nM] | koff (His-avitag-natural NKG2D) [s⁻¹] | kon (His-avitag-natural NKG2D) [M⁻¹ s⁻¹] |
| --- | --- | --- | --- | --- |
| B1 | binds |  |  |  |
| B2 |  | 13.8 | 0.0018 | 130000 |
| B3 |  | 0.0851 | 3.05e-05 | 359000 |
| B4 |  | 0.0616 | 2.88e-05 | 467000 |
| B5 |  | 0.411 | 8.54e-05 | 208000 |
| B6 |  | 0.33 | 7.03e-05 | 246000 |
| B7 |  | 0.109 | 3.78e-05 | 347000 |
| B8 |  | 0.244 | 0.000145 | 595000 |
| B9 |  | 0.746 | 2.76e-05 | 37000 |
